Substitutions are numbered along the chain they refer to.
T1: FcγRIIa (UniProt P12318 34-217)
T1 sequence (looked up): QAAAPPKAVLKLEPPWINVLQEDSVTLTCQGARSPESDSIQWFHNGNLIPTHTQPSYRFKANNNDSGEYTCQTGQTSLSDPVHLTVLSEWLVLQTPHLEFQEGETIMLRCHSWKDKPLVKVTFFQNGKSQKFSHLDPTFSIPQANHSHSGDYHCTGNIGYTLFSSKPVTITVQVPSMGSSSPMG

B1: Q-SBL-101 (bispecific antibody, human IgG1, kappa)
heavy 1: not shown
heavy 2: EVQLVESGGGLVQPGGSLRLSCAASGYTFTNYGMNWVRQAPGKGLEWVGWINTYTGEPTYAADFKRRFTFSLDTSKSTAYLQMNSLRAEDTAVYYCAKYPHYYGSSHWYFDVWGQGTLVTVSSASTKGPSVFPLAPSSKSTSGGTAALGCLVKDYFPEPVTVSWNSGALTSGVHTFPAVLQSSGLYSLSSVVTVPSSSLGTQTYICNVNHKPSNTKVDKKVEPKSCDKTHTCPPCPAPELLGGPSVFLFPPKPKDTLMISRTPEVTCVVVDVSHEDPEVKFNWYVDGVEVHNAKTKPREEQYNSTYRVVSVLTVLHQDWLNGKEYKCKVSNKALPAPIEKTISKAKGQPREPQVCTLPPSRREMTKNQVSLWCLVKGFYPSDIAVEWESNGQPENNYKTTPPVLDSDGSFFLYSKLTVDKSRWQQGNVFSCSVMHEALHNHYTQKSLSLSPGK
light 1: not shown
light 2: not shown
notes: copies: 1 + 1 + 1 + 1
B2: Q-SBL-127 (bispecific antibody, human IgG1, kappa)
heavy 1: not shown
heavy 2: B1 heavy 2 with R362E, D405F
light 1: not shown
light 2: not shown
notes: copies: 1 + 1 + 1 + 1
B3: Q-SBL-111 (bispecific antibody, human IgG1, kappa)
heavy 1: not shown
heavy 2: B1 heavy 2
light 1: not shown
light 2: not shown
notes: copies: 1 + 1 + 1 + 1
B4: Q-SBL-116 (bispecific antibody, human IgG1, kappa)
heavy 1: not shown
heavy 2: B1 heavy 2 with R362K
light 1: not shown
light 2: not shown
notes: copies: 1 + 1 + 1 + 1
B5: Q-SBL-102 (bispecific antibody, human IgG1, kappa)
heavy 1: not shown
heavy 2: B1 heavy 2 with R362E, D405H
light 1: not shown
light 2: not shown
notes: copies: 1 + 1 + 1 + 1
B6: Q-SBL-117 (bispecific antibody, human IgG1, kappa)
heavy 1: not shown
heavy 2: B1 heavy 2 with R362K
light 1: not shown
light 2: not shown
notes: copies: 1 + 1 + 1 + 1
B7: Q-SBL-109 (bispecific antibody, human IgG1, kappa)
heavy 1: not shown
heavy 2: B1 heavy 2
light 1: not shown
light 2: not shown
notes: copies: 1 + 1 + 1 + 1
B8: Q-SBL-115 (bispecific antibody, human IgG1, kappa)
heavy 1: not shown
heavy 2: B1 heavy 2 with R362E, E363R
light 1: not shown
light 2: not shown
notes: copies: 1 + 1 + 1 + 1
B9: Q-SBL-131 (bispecific antibody, human IgG1, kappa)
heavy 1: not shown
heavy 2: B1 heavy 2 with R362E, D405F
light 1: not shown
light 2: not shown
notes: copies: 1 + 1 + 1 + 1
B10: Q-SBL-114 (bispecific antibody, human IgG1, kappa)
heavy 1: not shown
heavy 2: B1 heavy 2 with R362E, D405H
light 1: not shown
light 2: not shown
notes: copies: 1 + 1 + 1 + 1
B11: Q-SBL-137 (bispecific antibody, human IgG1, kappa)
heavy 1: not shown
heavy 2: B1 heavy 2 with R362E, K415S
light 1: not shown
light 2: not shown
notes: copies: 1 + 1 + 1 + 1
B12: Q-SBL-130 (bispecific antibody, human IgG1, kappa)
heavy 1: not shown
heavy 2: B1 heavy 2 with R362E, D405F
light 1: not shown
light 2: not shown
notes: copies: 1 + 1 + 1 + 1
B13: Q-SBL-103 (bispecific antibody, human IgG1, kappa)
heavy 1: not shown
heavy 2: B1 heavy 2 with R362E, E363R
light 1: not shown
light 2: not shown
notes: copies: 1 + 1 + 1 + 1
B14: Q-SBL-105 (bispecific antibody, human IgG1, kappa)
heavy 1: not shown
heavy 2: B1 heavy 2 with E363R
light 1: not shown
light 2: not shown
notes: copies: 1 + 1 + 1 + 1
B15: Q-SBL-136 (bispecific antibody, human IgG1, kappa)
heavy 1: not shown
heavy 2: B1 heavy 2 with R362E, K415T
light 1: not shown
light 2: not shown
notes: copies: 1 + 1 + 1 + 1
B16: Q-SBL-104 (bispecific antibody, human IgG1, kappa)
heavy 1: not shown
heavy 2: B1 heavy 2 with D405H
light 1: not shown
light 2: not shown
notes: copies: 1 + 1 + 1 + 1
B17: Q-SBL-135 (bispecific antibody, human IgG1, kappa)
heavy 1: not shown
heavy 2: B1 heavy 2 with R362E, K415V
light 1: not shown
light 2: not shown
notes: copies: 1 + 1 + 1 + 1
B18: Q-SBL-106 (bispecific antibody, human IgG1, kappa)
heavy 1: not shown
heavy 2: B1 heavy 2 with R362E, E363R, D405H
light 1: not shown
light 2: not shown
notes: copies: 1 + 1 + 1 + 1

Target: T2, C1q, complement component 1q (UniProt P02745 23-245; P02746 28-253; P02747 29-245)
T2 construct: also called Clq
T2 sequence (P02745 23-245 limits assumed, chain 1 of 3): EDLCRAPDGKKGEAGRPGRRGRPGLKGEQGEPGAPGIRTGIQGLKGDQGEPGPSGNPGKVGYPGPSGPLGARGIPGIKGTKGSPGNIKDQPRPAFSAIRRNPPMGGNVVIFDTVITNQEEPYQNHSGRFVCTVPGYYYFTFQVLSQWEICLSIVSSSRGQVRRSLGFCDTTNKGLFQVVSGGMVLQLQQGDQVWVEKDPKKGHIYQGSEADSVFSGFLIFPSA
T2 sequence (P02746 28-253 limits assumed, chain 2 of 3): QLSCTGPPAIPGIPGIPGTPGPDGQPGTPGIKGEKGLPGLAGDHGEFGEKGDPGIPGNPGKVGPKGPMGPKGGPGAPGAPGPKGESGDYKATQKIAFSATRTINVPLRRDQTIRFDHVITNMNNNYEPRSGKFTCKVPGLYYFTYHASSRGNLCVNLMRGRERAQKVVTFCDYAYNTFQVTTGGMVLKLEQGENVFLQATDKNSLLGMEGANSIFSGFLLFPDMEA
T2 sequence (P02747 29-245 limits assumed, chain 3 of 3): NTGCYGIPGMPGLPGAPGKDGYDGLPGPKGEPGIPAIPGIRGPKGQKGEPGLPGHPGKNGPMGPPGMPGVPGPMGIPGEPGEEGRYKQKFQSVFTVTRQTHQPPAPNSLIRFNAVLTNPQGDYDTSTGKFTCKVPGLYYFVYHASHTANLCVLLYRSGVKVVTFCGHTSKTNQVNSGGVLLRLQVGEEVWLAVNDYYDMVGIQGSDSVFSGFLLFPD
Assay: BLI (Octet HTX), antibody on FAB2G biosensor, C1q in solution

Binder | Kd
B1 | 36 nM
B2 | 18 nM
B3 | 30 nM
B4 | 33 nM
B5 | 40 nM
B6 | 40 nM
B7 | 28 nM
B8 | 18 nM
B9 | 16 nM
B10 | 18 nM
B11 | 24 nM
B12 | 17 nM
B13 | 40 nM

Target: T1, FcγRIIa
Assay: BLI (Octet HTX), antibody on FAB2G biosensor, FcγRIIa in solution

Binder | Kd
B1 | 2460 nM
B2 | 1630 nM
B14 | 1910 nM
B3 | 2040 nM
B4 | 2340 nM
B5 | 1700 nM
B6 | 2550 nM
B7 | 2200 nM
B8 | 1970 nM
B9 | 1620 nM
B15 | 1970 nM
B16 | 1870 nM
B10 | 1860 nM
B17 | 1380 nM
B11 | 2120 nM
B12 | 1720 nM
B13 | 1130 nM

Target: T3, FcγRIIIa (UniProt P08637 17-208)
T3 construct: also called FcyRIIIa
T3 sequence (P08637 17-208 limits assumed): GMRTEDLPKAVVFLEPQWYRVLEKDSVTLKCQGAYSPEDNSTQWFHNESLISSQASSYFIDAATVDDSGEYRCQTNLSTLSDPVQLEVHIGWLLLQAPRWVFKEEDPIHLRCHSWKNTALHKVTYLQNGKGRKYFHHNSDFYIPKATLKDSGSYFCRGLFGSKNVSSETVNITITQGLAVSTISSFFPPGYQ
Assay: BLI (Octet HTX), antibody on FAB2G biosensor, FcγRIIIa in solution

Binder | Kd
B1 | 500 nM
B2 | 230 nM
B14 | 430 nM
B3 | 490 nM
B4 | 370 nM
B5 | 420 nM
B6 | 360 nM
B7 | 340 nM
B8 | 290 nM
B9 | 330 nM
B15 | 230 nM
B10 | 230 nM
B17 | 300 nM
B11 | 380 nM
B12 | 290 nM
B13 | 220 nM

Target: T4, FcRn (UniProt P55899 24-297)
T4 construct: also called neonatal Fc receptor
T4 sequence (P55899 24-297 limits assumed, form in doubt): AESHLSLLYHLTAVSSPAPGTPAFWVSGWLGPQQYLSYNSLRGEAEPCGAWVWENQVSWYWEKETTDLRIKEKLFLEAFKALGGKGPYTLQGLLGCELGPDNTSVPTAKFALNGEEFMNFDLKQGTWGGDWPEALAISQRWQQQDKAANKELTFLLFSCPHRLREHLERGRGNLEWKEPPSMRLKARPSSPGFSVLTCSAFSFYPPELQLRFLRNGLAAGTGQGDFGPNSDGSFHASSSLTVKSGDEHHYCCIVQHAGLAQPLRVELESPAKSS
Assay: BLI (Octet HTX), antibody on FAB2G biosensor, FcRn in solution, pH 6.0

Binder | Kd
B1 | 730 nM
B2 | 750 nM
B14 | 710 nM
B3 | 690 nM
B4 | 650 nM
B5 | 710 nM
B7 | 640 nM
B8 | 690 nM
B9 | 670 nM
B15 | 620 nM
B18 | 680 nM
B16 | 680 nM
B17 | 650 nM
B11 | 580 nM
B12 | 740 nM
